Laboratory results taken from patent publication US20180118786A1 (published 2018).
Starred links: 1 amine or outer side, 2 acyl side, 3 side chain; linkers in the order of their positions; H or OH if unused. Positions of bridges follow the written chain, without caps; N, C: chain ends. TATA = O=C(CC[*:1])N1CN(C(=O)CC[*:2])CN(C(=O)CC[*:3])C1

Columns and labels:
Assay in all cases: enzyme inhibition
factor XIa = factor XIa (human, UniProt P03951 19-625)
factor Xa = target: T1, factor Xa (human, UniProt P00742 41-179; P00742 235-488)
T1 chain 1: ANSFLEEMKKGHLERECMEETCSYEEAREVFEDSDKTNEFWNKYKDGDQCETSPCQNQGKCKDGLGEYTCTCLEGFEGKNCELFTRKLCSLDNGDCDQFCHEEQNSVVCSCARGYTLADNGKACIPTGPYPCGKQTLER
T1 chain 2: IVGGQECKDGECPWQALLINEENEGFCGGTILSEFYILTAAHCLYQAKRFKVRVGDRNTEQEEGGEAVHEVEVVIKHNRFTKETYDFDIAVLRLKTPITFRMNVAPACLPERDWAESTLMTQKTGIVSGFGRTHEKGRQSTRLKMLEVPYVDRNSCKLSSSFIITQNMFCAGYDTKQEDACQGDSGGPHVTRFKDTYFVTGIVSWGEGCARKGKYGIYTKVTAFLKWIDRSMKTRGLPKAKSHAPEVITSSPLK

factor VIIa = target: T2, factor VIIa (human, UniProt P08709 61-466)
T2 chain: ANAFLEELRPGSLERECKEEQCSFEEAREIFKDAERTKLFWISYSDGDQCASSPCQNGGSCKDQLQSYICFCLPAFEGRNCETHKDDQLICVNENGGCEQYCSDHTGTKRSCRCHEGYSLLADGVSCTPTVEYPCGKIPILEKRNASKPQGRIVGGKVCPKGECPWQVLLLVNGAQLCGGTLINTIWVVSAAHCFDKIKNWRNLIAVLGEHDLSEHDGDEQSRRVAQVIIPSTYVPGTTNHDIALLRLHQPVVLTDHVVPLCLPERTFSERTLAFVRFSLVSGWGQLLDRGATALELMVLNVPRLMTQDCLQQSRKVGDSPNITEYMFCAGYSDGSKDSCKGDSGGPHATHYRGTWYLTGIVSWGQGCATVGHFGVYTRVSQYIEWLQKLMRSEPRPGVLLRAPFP

thrombin = thrombin (human, UniProt P00734 328-622)
plasma kallikrein = plasma kallikrein (human, UniProt P03952 20-638)
uPA = uPA (human, UniProt P00749 21-431)
plasmin = target: T3, plasmin (human, UniProt P00747 97-810)
T3 chain: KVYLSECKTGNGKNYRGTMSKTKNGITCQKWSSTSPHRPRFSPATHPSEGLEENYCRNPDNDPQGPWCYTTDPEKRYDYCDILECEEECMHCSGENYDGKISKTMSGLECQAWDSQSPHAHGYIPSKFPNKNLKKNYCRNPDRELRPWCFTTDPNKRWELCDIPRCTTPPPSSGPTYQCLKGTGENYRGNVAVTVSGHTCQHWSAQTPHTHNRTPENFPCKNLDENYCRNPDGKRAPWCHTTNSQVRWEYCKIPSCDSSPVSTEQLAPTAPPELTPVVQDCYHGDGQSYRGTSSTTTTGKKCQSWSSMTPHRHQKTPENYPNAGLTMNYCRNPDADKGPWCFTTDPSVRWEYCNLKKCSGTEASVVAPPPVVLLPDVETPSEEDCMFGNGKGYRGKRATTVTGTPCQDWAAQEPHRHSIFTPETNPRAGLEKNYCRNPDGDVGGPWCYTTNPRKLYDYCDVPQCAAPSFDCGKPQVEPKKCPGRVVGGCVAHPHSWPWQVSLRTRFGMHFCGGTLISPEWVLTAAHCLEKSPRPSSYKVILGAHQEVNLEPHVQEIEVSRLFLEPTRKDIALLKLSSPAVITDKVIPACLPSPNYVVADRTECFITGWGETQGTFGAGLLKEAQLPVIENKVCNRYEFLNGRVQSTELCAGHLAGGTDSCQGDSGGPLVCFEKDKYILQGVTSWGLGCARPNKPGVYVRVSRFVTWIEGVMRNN

[1] = target: human tissue-plasminogen activator (human, UniProt P00750 36-562)
human tissue-plasminogen activator, sequence (P00750 36-562): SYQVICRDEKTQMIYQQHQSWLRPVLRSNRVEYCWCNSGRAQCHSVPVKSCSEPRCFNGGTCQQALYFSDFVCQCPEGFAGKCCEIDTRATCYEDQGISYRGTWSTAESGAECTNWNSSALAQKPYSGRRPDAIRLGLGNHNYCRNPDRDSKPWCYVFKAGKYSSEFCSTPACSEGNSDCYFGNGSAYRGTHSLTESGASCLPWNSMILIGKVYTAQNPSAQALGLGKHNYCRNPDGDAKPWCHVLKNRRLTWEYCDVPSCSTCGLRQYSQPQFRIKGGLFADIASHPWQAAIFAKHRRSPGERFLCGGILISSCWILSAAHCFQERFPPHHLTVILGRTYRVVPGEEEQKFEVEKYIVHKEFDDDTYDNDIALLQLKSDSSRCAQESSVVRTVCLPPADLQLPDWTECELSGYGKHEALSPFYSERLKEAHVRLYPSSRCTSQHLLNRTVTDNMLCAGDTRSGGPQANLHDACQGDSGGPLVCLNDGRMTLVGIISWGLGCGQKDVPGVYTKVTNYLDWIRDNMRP

plasma kallikrein, sequence (P03952 20-638): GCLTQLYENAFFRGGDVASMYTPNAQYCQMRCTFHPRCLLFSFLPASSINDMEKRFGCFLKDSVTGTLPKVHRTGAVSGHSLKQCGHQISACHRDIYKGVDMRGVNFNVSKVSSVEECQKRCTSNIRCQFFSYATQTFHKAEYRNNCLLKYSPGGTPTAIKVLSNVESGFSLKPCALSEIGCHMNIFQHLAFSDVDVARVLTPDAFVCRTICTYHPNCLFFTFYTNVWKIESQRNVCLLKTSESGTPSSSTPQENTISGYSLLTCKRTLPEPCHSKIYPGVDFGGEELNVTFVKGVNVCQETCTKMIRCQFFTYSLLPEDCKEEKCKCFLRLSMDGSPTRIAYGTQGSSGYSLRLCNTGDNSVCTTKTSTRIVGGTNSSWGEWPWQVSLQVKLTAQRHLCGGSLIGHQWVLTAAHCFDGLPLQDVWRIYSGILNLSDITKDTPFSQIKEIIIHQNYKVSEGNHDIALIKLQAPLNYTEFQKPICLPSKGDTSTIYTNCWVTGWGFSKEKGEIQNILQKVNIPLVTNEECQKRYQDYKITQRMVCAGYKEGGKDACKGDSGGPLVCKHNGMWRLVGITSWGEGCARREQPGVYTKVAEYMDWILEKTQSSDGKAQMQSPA

- Ki (factor XIa): > 50 µM
- Ki (factor Xa): > 50 µM
- Ki (factor VIIa): > 50 µM
- Ki (thrombin): > 50 µM
- Ki (plasma kallikrein): > 50 µM
- Ki (uPA): > 50 µM
- Ki (plasmin): > 50 µM
- Ki [1]: > 50 µM
B1: FXII618 (peptide)
peptide: H-RCFRLPCRQLRCR-NH2
modifications: linker 2-7-12 via TATA
